According to patent US20200079876A1 (BIOVERATIV USA, published 2020):
Changes are numbered by the printed parent chain.

Columns and labels:
[1] = target: T1, recombinant human complement component C1s (rhC1s) (human, UniProt P09871 16-688); test: cell-based or functional assay
T1 sequence (looked up): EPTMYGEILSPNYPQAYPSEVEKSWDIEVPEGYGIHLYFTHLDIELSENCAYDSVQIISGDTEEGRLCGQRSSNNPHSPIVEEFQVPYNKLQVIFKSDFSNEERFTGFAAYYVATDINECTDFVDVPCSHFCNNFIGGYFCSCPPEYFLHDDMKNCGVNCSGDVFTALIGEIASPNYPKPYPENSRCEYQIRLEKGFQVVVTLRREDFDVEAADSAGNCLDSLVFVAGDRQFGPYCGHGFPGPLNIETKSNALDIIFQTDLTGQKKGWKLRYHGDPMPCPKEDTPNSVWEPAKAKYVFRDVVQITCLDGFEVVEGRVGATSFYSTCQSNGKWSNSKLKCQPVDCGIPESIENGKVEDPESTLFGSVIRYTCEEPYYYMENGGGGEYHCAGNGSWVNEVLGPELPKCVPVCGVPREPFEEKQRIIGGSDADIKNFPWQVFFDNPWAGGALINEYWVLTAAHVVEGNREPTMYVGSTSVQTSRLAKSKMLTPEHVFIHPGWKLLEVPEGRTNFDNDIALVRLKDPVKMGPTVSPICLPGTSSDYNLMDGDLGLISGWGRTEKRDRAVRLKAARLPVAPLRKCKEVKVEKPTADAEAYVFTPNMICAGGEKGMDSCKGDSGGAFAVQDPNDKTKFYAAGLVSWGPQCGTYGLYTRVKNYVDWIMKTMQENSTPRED

[2] = target: T1, recombinant human complement component …; test: cell-based or functional assay; remark: listed apart in the source
[3] = target: T2, Pro-C1s; test: bio-layer interferometry (BLI), kinetic analysis
T2 construct: also called purified pro-C1s protein
T2 chain: T1 sequence (looked up)

[4] = target: T3, purified human activated C1s protein, two-chain form (Homo sapiens, UniProt P09871 16-688); test: bio-layer interferometry (BLI), kinetic analysis
T3 construct: Purified protein bought from EMD Millipore; Biotin-labeled in the clone screen; also called active C1s; native C1s protein
T3 sequence: T1 sequence (looked up)

B1: antibody IPN-M1 (antibody, V domains shown)
VH: EVQLQQSGAELVRPGASVKLSCTASGFNIKDDYIHWVKQRPEQGLEWIGRIDPADDHTKYAPKFQDKATMTADTSSNTACLQLNSLTSEDTAVYYCAIYGSGWAWFPYWGQGTLVSVSA
VL: DIVLTQSTDYLAVSLGQRATISCKASQSVDYDGDSYMNWYQQKPGQPPKLLIYAASNLESGIPARFSGSGSGTDFTLNIHPVEEEDAATYYCQQSNEDPWTFGGGTKLEIK
notes: Mouse monoclonal antibody (NZBW hybridoma); of the 17, thirteen were IgG2a, one IgG2b, three IgG1; Same VL and VH as IPN-M3 and IPN-M13
- inhibition of C1s protease activity (relative to nafamostat) [1]: > 50%
- Inhibition of C1s Protease Activity (%), single point with clone supernatant, relative to 100 nM nafamostat [2]: 79%
- Kd [3]: 92.5 nM
- koff [3]: 0.000392 s⁻¹
- kon [3]: 4120 M⁻¹ s⁻¹
- Kd [4]: 0.26 nM
- koff [4]: 0.000213 s⁻¹
- kon [4]: 817000 M⁻¹ s⁻¹

B2: antibody IPN-M28 (antibody, V domains shown)
VH: B1 VH
VL: B1 VL with S7T, T8P
notes: Mouse monoclonal antibody (NZBW hybridoma)
- inhibition of C1s protease activity (relative to nafamostat) [1]: > 50%
- Inhibition of C1s Protease Activity (%), single point with clone supernatant, relative to 100 nM nafamostat [2]: 92%
- Kd [3]: 16.7 nM
- koff [3]: 0.000178 s⁻¹
- kon [3]: 10600 M⁻¹ s⁻¹
- Kd [4]: 0.236 nM
- koff [4]: 0.000215 s⁻¹
- kon [4]: 914000 M⁻¹ s⁻¹

B3: antibody IPN-M15 (antibody, V domains shown)
VH: B1 VH with Q3K, Q5E
VL: B1 VL with D1F, I2A, V3L, L4M, A64T, S71F, T106P
notes: as for B2
- inhibition of C1s protease activity (relative to nafamostat) [1]: > 50%
- Inhibition of C1s Protease Activity (%), single point with clone supernatant, relative to 100 nM nafamostat [2]: 100%
- Kd [3]: 3.37 nM
- koff [3]: 0.000194 s⁻¹
- kon [3]: 57500 M⁻¹ s⁻¹
- Kd [4]: 0.172 nM
- koff [4]: 0.000149 s⁻¹
- kon [4]: 858000 M⁻¹ s⁻¹

B4: antibody IPN-M18 (antibody, V domains shown)
VH: EVQLQQSGPELVKPGASVKISCKASGYSFTGYYIHWVKQSPEKSLEWIGEINPTTNDTTYNQKFKAKATLTVDKSSNTAYMQLKSLTSEDSAVYYCSRDISGPAWFAYWGQGTLVTVSA
VL: DIVLTQTTAIMSASPGEKVTMTCSASSSISYMYWFQQKPGTSPKRWIYDTSKLASGVPARFSGSGSGTSYSLTISTMEAEDAATYYCHQRSSDPTFGGGTKLEINR
notes: as for B2
- inhibition of C1s protease activity (relative to nafamostat) [1]: > 50%
- Inhibition of C1s Protease Activity (%), single point with clone supernatant, relative to 100 nM nafamostat [2]: 68%
- Kd [3]: 1.89 nM
- koff [3]: 0.000395 s⁻¹
- kon [3]: 209000 M⁻¹ s⁻¹
- Kd [4]: 1.98 nM
- koff [4]: 0.00102 s⁻¹
- kon [4]: 517000 M⁻¹ s⁻¹

B5: antibody IPN-M9 (antibody, V domains shown)
VH: QVQLQQPGAELVRPGASVKLSCKVSGYTFTRYWMHWVKQRPGQGLEWIGEINPSNSDTDYNEEFKSKATLTVDKSSSTAYMHLSSLTSEDSAVYYCTIDDSAYGWFAYWGQGTLVTVSA
VL: DIVMTQSPAIMSASPGERVTMTCSASSSISYMHWYHQKPGTSPKRWIYDTSKLASGVPARFSGSGSGTSYSLTISSMEAEDAATYYCHQRSSFPTFGAGTKLELK
notes: as for B2
- inhibition of C1s protease activity (relative to nafamostat) [1]: > 50%
- Inhibition of C1s Protease Activity (%), single point with clone supernatant, relative to 100 nM nafamostat [2]: 69%
- Kd [3]: 4.69 nM
- koff [3]: 0.000299 s⁻¹
- kon [3]: 63700 M⁻¹ s⁻¹
- Kd [4]: 0.608 nM
- koff [4]: 0.000361 s⁻¹
- kon [4]: 594000 M⁻¹ s⁻¹

B6: antibody IPN-M10 (antibody, V domains shown)
VH: B5 VH with A102V
VL: B5 VL with M4I
notes: as for B2
- inhibition of C1s protease activity (relative to nafamostat) [1]: > 50%
- Inhibition of C1s Protease Activity (%), single point with clone supernatant, relative to 100 nM nafamostat [2]: 67%
- Kd [3]: 7.98 nM
- koff [3]: 0.000339 s⁻¹
- kon [3]: 42500 M⁻¹ s⁻¹
- Kd [4]: 0.607 nM
- koff [4]: 0.000369 s⁻¹
- kon [4]: 608000 M⁻¹ s⁻¹

B7: antibody IPN-M23 (antibody, V domains shown)
VH: B5 VH with A102V
VL: B5 VL with S12F, H33P, H36P, T41P, S66F, S69F, T84P, T95P
notes: as for B2
- inhibition of C1s protease activity (relative to nafamostat) [1]: > 50%
- Inhibition of C1s Protease Activity (%), single point with clone supernatant, relative to 100 nM nafamostat [2]: 74%
- Kd [3]: 7.17 nM
- koff [3]: 0.000347 s⁻¹
- kon [3]: 48400 M⁻¹ s⁻¹
- Kd [4]: 0.57 nM
- koff [4]: 0.000353 s⁻¹
- kon [4]: 619000 M⁻¹ s⁻¹

B8: antibody IPN-M27 (antibody, V domains shown)
VH: B5 VH with P7S, S85N
VL: B5 VL with M4L, P8T, T73A
notes: as for B2
- inhibition of C1s protease activity (relative to nafamostat) [1]: > 50%
- Inhibition of C1s Protease Activity (%), single point with clone supernatant, relative to 100 nM nafamostat [2]: 64%
- Kd [3]: 11.1 nM
- koff [3]: 0.000283 s⁻¹
- kon [3]: 25400 M⁻¹ s⁻¹
- Kd [4]: 0.593 nM
- koff [4]: 0.000394 s⁻¹
- kon [4]: 664000 M⁻¹ s⁻¹

B9: antibody IPN-M24 (antibody, V domains shown)
VH: EVKLQQSGAELVRPGVSVKISCKVSGYTFTDYAMHCVKQSHAKSLEWIGVISIYNGDASYNQKFKDKATMTVDKSSSTSYMDLARLTSEESAVYNCVREAPYLITTVFYAMDYWGQGTSVTVSS
VL: B5 VL with R18K, S26N, H36Q, A59T, S92F, F93Y, P94L, A98S, L104I
notes: as for B2
- inhibition of C1s protease activity (relative to nafamostat) [1]: > 50%
- Inhibition of C1s Protease Activity (%), single point with clone supernatant, relative to 100 nM nafamostat [2]: 68%
- Kd [3]: 4.46 nM
- koff [3]: 0.00036 s⁻¹
- kon [3]: 80800 M⁻¹ s⁻¹
- Kd [4]: 1.01 nM
- koff [4]: 0.000499 s⁻¹
- kon [4]: 492000 M⁻¹ s⁻¹

B10: antibody IPN-M29 (antibody, V domains shown)
VH: EVQLQQSGPELVKPGASVKISCKASGYSFTGFYMQWVKQSPEKNLEWIGEINPTTGDETYNQKFQAKATLTVDKSSSTAYMQLKSLTSEDSAVYFCASDFYDGSFAWFEYWGKDYLTVSA
VL: B5 VL with M4L, A9V, R18K, M32I, H36Q, F93Y, P94L, A98S, L104I
notes: as for B2
- inhibition of C1s protease activity (relative to nafamostat) [1]: > 50%
- Inhibition of C1s Protease Activity (%), single point with clone supernatant, relative to 100 nM nafamostat [2]: 73%
- Kd [3]: 5.55 nM
- koff [3]: 0.000408 s⁻¹
- kon [3]: 73600 M⁻¹ s⁻¹
- Kd [4]: 1.28 nM
- koff [4]: 0.000594 s⁻¹
- kon [4]: 463000 M⁻¹ s⁻¹

B11: antibody IPN-M33 (antibody, V domains shown)
VH: QVKLQQSGPELVKPGTSVRISCKTSGYSFTGYYMHWVKQSPEKSLEWIGEINPSIGDITYNQRFKAKATLTVDKSSSTAYMQLKSLTSEDSAVYYCASDYYGGGFAWFAYWGQGTLVTVSA
VL: B5 VL with P15S, R18K, S30N, H36Q, A82T, S92D, F93S, P94L, A98S, L104I
notes: as for B2
- inhibition of C1s protease activity (relative to nafamostat) [1]: > 50%
- Inhibition of C1s Protease Activity (%), single point with clone supernatant, relative to 100 nM nafamostat [2]: 97%
- Kd [3]: 0.3 nM
- koff [3]: 2.52e-05 s⁻¹
- kon [3]: 83800 M⁻¹ s⁻¹
- Kd [4]: 0.329 nM
- koff [4]: 0.000154 s⁻¹
- kon [4]: 467000 M⁻¹ s⁻¹

B12: antibody IPN-M2 (antibody, V domains shown)
VH: EVKLQQSGAELVRPGASVKLSCTASGFNIKDDYIHWVKQRPEQGLEWIGRIDPADGHTKYAPKFQVKATITADTSSNTAYLQLSSLTSEDTAVYYCARYGYGREVFDYWGQGTTLTVSS
VL: B1 VL with T8P, D9A, Y10S, P44T, L50I, A54D, T89I
notes: Mouse monoclonal antibody (NZBW hybridoma); Same VL and VH as IPN-M8
- inhibition of C1s protease activity (relative to nafamostat) [1]: > 50%
- Inhibition of C1s Protease Activity (%), single point with clone supernatant, relative to 100 nM nafamostat [2]: 100%
- Kd [3]: 42.3 nM
- koff [3]: 0.000197 s⁻¹
- kon [3]: 4660 M⁻¹ s⁻¹
- Kd [4]: 0.291 nM
- koff [4]: 0.000279 s⁻¹
- kon [4]: 957000 M⁻¹ s⁻¹

B13: antibody IPN-M14 (antibody, V domains shown)
VH: B12 VH
VL: DIVLTQFPTFLAVFLGQRAPISCKASQSVDYDGDSYMNWFQQKTGQPPKILIYDASNLEFGIPTRFSGSGFGTDFPLNIHPVEEEDAAIYFCQQSNEDPWTFGGGPKLEIK
notes: as for B2
- inhibition of C1s protease activity (relative to nafamostat) [1]: > 50%
- Inhibition of C1s Protease Activity (%), single point with clone supernatant, relative to 100 nM nafamostat [2]: 100%
- Kd [3]: 13.5 nM
- koff [3]: 0.000223 s⁻¹
- kon [3]: 16500 M⁻¹ s⁻¹
- Kd [4]: 0.207 nM
- koff [4]: 0.000231 s⁻¹
- kon [4]: 1.12e+06 M⁻¹ s⁻¹

B14: antibody IPN-M3 (antibody, V domains shown)
VH: B1 VH
VL: B1 VL
notes: Mouse monoclonal antibody (NZBW hybridoma); Same VL and VH as IPN-M1 and IPN-M13
- inhibition of C1s protease activity (relative to nafamostat) [1]: > 50%
- Inhibition of C1s Protease Activity (%), single point with clone supernatant, relative to 100 nM nafamostat [2]: 89%
- Kd [3]: 102 nM
- koff [3]: 0.00041 s⁻¹
- kon [3]: 4040 M⁻¹ s⁻¹
- Kd [4]: 0.187 nM
- koff [4]: 0.000158 s⁻¹
- kon [4]: 845000 M⁻¹ s⁻¹

B15: antibody IPN-M8 (antibody, V domains shown)
VH: B12 VH
VL: B1 VL with T8P, D9A, Y10S, P44T, L50I, A54D, T89I
notes: Mouse monoclonal antibody (NZBW hybridoma); Same VL and VH as IPN-M2
- inhibition of C1s protease activity (relative to nafamostat) [1]: > 50%
- Inhibition of C1s Protease Activity (%), single point with clone supernatant, relative to 100 nM nafamostat [2]: 100%
- Kd [3]: 19.7 nM
- koff [3]: 0.000178 s⁻¹
- kon [3]: 9080 M⁻¹ s⁻¹
- Kd [4]: 0.213 nM
- koff [4]: 0.000234 s⁻¹
- kon [4]: 1.12e+06 M⁻¹ s⁻¹
